According to patent US8624002B2, “Prostaglandin E2 binding proteins and uses thereof” (AbbVie, Inc., priority 2008, dated 2014):
Substitutions are numbered along the chain they refer to. Numbers in names are those of the source.

B1: 2B5-7.0: recombinant anti-PGE2 antibody from solved 2B5 sequence; VH SEQ ID NO 40, VL SEQ ID NO 41 (antibody, V domains shown)
VH: QVQLQQSGPELVRPGSSVKISCKASGYTFTKYWLGWVKQRPGHGLEWIGDIYPGYDYTHYNEKFKDKATLTVDTSSSTAYMQLSSLTSEDSAVYFCARSDGSSTYWGQGTLVTVSA
VL: DVLMTQTPLSLPVSLGDQASISCTSSQNIVHSNGNTYLEWYLQRPGQSPKLLIYKVSNRFSGVPDRFSGSGSGTVFTLKISRVEAEDLGVYYCFQVSHVPYTFGGGTKLEIKR
B2: 2B5-9.0: recombinant anti-PGE2 antibody from solved 2B5 sequence; VH SEQ ID NO 44, VL SEQ ID NO 45 (antibody, V domains shown)
VH: B1 VH with G54Y, Y55G
VL: B1 VL
B3: L11: human anti-PGE2 antibody from PROfusion mRNA display; VH SEQ ID NO 25, VL SEQ ID NO 29 (antibody, V domains shown)
VH: EVQLVQSGPELKKPGTSVKVSCKASGYTLTTYAMNWVRQAPGQGLEWMGWIDTSTGNPTYAPGFLGRFVFSLDTSLSTTYLQISSLKPDDTAVYYCARSSHTRPGDFWGQGTLVTVSS
VL: QSGLTQPPSVSGTPGQRVTISCSGSESNVGTNSVNWYQQLPGAAPRLLIRGNSDRPSGVPDRFSASKSGTSASLAISRLQSEDEADYFCGACDGRLSGLYVFGTGTKVTVL
B4: K3A: human anti-PGE2 antibody from PROfusion mRNA display; VH SEQ ID NO 13, VL SEQ ID NO 17 (antibody, V domains shown)
VH: EVQLVQSGAETKKPGASVEVSCKASGYSFTEYGISWVRQAPGQGPEWMGCISPYNGKLHYAQEFQGRVTMTTGTSTNTAYMELGSLRSDDTAVYYCARGGFSFYDSSGYYYVTDHWGQGTLVTVSS
VL: DIRLTQSPSSLSASVGDRVTITCRASQSIGSYLNWYQQKSGKAPKLLIYAASKLQSGVPSRFSGSGFGTDFTLTISSLQPEDSATYYCQQSDTTPFTFGQGTKLEIKR
B5: L21: human anti-PGE2 antibody from PROfusion mRNA display; VH SEQ ID NO 33, VL SEQ ID NO 36 (antibody, V domains shown)
VH: EVQLVQSGSELKKPGTSVKVSCKASGYTLTTYAMNWVRQAPGQGLEWMGWIGTSTGNPTYAQGFTGRFVFSLDTSVNTAHLQIYSLKAEDTALYYCARSSLTRPADYWGQGTLVTVSS
VL: QSGLTQPPSVSGAPGQRVTISCFGSSSNIGAGYDVHWYQQLPGAAPKLLIFGNNNRPSGVPDRFSGSKSGTSASLAITGLQAEDEADYYCQSCDSSLSGAVFGTGTKVTVL
B6: K1B: human anti-PGE2 antibody from PROfusion mRNA display; VH SEQ ID NO 5, VL SEQ ID NO 9 (antibody, V domains shown)
VH: EVQLVQSGAEVKRPGASVKVSCKTSGYTFTNYDINWVRLAPGQGLEWMGCMNPTTGKTGYAQKFQGRVTMTRDTTIATAYMELSRLTSEDTAVYYCARGRGYSPGYGVAYADYWGQGTLVTVSS
VL: DIQLTQSPSSLPASVGDRVTITCRASQSISTYLNWYQQTPGKAPSLLIYAASSLQSGVPSRFSGSGSGTDFTLTISSLQPEDFATYYCQQSYSPPPTFGGGTKVEIKR
B7: K7H: human anti-PGE2 antibody from PROfusion mRNA display; VH SEQ ID NO 21, VL SEQ ID NO 24 (antibody, V domains shown)
VH: B4 VH with A9S, T11L, E19K, E63K, Q65L, G73D, G84R, R87K, F103S
VL: B6 VL with Q3R

Experiment: Biotin-PGE2 ELISA (PGE2-biotinamide binding to captured IgG)
Conditions: not given
Protocol: Enzyme linked immunosorbent assays to screen for antibodies that bind prostaglandin E2 were performed according to at least one of the two following methods.
ELISA plates (Costar 3369, Corning, N.Y.) were coated with 50 μl of anti-host Fc IgG (Sigma, St. Louis, Mo.) at 2 μg/ml in PBS (Invitrogen Carlsbad, Calif.). Following an overnight incubation at 4° C., washed with PBS and the plate was blocked with 200 μl Superblock (Pierce #37535, Rockford, Ill.). The IgG containing samples were diluted to 1 μg/ml in Assay Buffer (10% Superblock in PBS containing 0.05% Surfactamps (Pierce #37535, Rockford, Ill.) and 50 μl/well added to each well and incubated for 1 hour at room temperature. Plates were washed four times with Tween-Tris Buffered Solution (TTBS). […] The titration curve samples were added to each IgG sample at 50 μl/well and incubated for 1 hour at room temperature. The plates were washed as previously described and 50 μl of 1:5000 dilution of streptavidin polyhrp40 (Fitzgerald Industries, Concord, Mass.) in Assay Buffer was added to each well and incubated for 45 minutes at room temperature. A final wash step was performed and the plates were developed using a single step TMB system (Sigma #T8665, St. Louis, Mo.) and 100 μl/well 2N H2SO4. Plates were read at 450 nm on a Molecular Devices Spectramax plate reader (Sunnyvale, Calif.). EC50 was determined using GraphPad Prism 5 (GraphPad Software, La Jolla, Calif.).

Molecule | EC50 [nM] | ability to bind PGE2 in ELISA
B1 | 2.46 | potently bound to PGE2
B2 | 3.04 | potently bound to PGE2

Same assay, conditions: Biotin-PGE2 0 μM

Molecule | Binding to PGE2-Biotinamide (OD450)
B3 | 0.04
B4 | 0.11
B5 | 0.08
B6 | 0.07
B7 | 0.04

Same assay, conditions: Biotin-PGE2 0.1 μM

Molecule | Binding to PGE2-Biotinamide (OD450)
B3 | 0.04
B4 | 0.22
B5 | 0.10
B6 | 0.13
B7 | 0.03

Same assay, conditions: Biotin-PGE2 0.3 μM

Molecule | Binding to PGE2-Biotinamide (OD450)
B3 | 0.04
B4 | 0.34
B5 | 0.16
B6 | 0.21
B7 | 0.04

Same assay, conditions: Biotin-PGE2 1 μM

Molecule | Binding to PGE2-Biotinamide (OD450)
B3 | 0.05
B4 | 0.51
B5 | 0.25
B6 | 0.29
B7 | 0.06

Same assay, conditions: Biotin-PGE2 2 μM

Molecule | Binding to PGE2-Biotinamide (OD450)
B3 | 0.07
B4 | 0.61
B5 | 0.32
B6 | 0.27
B7 | 0.10

Same assay, conditions: Biotin-PGE2 5 μM

Molecule | Binding to PGE2-Biotinamide (OD450)
B3 | 0.07
B4 | 0.67
B5 | 0.31
B6 | 0.67
B7 | 0.13

Same assay, conditions: Biotin-PGE2 15 μM

Molecule | Binding to PGE2-Biotinamide (OD450)
B3 | 0.07
B4 | 0.78
B5 | 0.41
B6 | 0.82
B7 | 0.29

Same assay, conditions: Biotin-PGE2 45 μM; IgG-containing COS7 media

Molecule | Binding to PGE2-Biotinamide (OD450)
B3 | 0.07
B4 | 0.58
B5 | 0.46
B6 | 0.88
B7 | 0.24

Experiment: Biotin-PGE2 competition ELISA (prostaglandin selectivity)
Format: binding
Conditions: PGA2
Protocol: Competition enzyme linked immunosorbent assays were performed to determine prostaglandin binding specificity for antibodies that bind prostaglandin E2, according to at least one of the two following methods.
ELISA plates (Costar 3369, Corning, N.Y.) were coated with 50 μl/well of anti-host Fc IgG (Sigma, St. Louis, Mo.) at 2 μg/ml in PBS (Invitrogen, Carlsbad, Calif.). Following an overnight incubation at 4° C., the plate was blocked with 200 μl Superblock (Pierce #37535, Rockford, Ill.). The IgG samples were diluted to 6 μg/ml in Assay Buffer (10% Superblock in PBS containing 0.05% Surfactamps (Pierce #37535, Rockford, Ill.). The PGE2-biotinamide was diluted to 3 nM in Assay Buffer. A titration curve in Assay Buffer was prepared for the prostaglandins PGA2 (Cayman Chemicals, Ann Arbor, Mich.), PGD2 (Cayman Chemicals, Ann Arbor, Mich.) and PGE2 (Cayman Chemicals, Ann Arbor, Mich.) starting at 300 nM by a 1:10 serial dilution. The reagents were added to tubes at a volume of 50 μl each/tube and preincubated for 1 hour at room temperature. Following the preincubation, the mix was transferred to the blocked plates and allowed to incubate for 1 hour at room temperature. Next, the plates were washed four times with Tween 20-Tris buffered solution (TTBS). Streptavidin polyhrp40 in Assay Buffer (Fitzgerald Industries, Concord, Mass.) at a 1:5000 dilution was then added to the wells and incubated for 45 minutes at room temperature. A final wash step was performed and the plates were developed using a single step TMB system (Sigma #T8665, Sigma, St. Louis, Mo.) and 100 μl/well 2N H2SO4. Plates were read at 450 nm on a Molecular Devices Spectramax plate reader (Sunnyvale, Calif.). […] IC50 number was determined using GraphPad Prism 5 (GraphPad Software, La Jolla, Calif.). The cross reactivity index was then calculated by IC50 of PGE2/IC50 of other prostaglandin(s).

Molecule | PG Selectivity in Biotin-PGE2 Competition ELISA (CRI %) PGA2 [%]
B1 | 0.11
B2 | 0.24

Same assay, conditions: PGD2

Molecule | PG Selectivity in Biotin-PGE2 Competition ELISA (CRI %) PGD2 [%]
B1 | <0.01
B2 | <0.01

Same assay, conditions: PGE1

Molecule | PG Selectivity in Biotin-PGE2 Competition ELISA (CRI %) PGE1 [%]
B1 | 27
B2 | 23
